± gives the standard deviation of the averaged measurements.
Test system: ATP
Assay: switch fluorescence ratio, 500 uM ATP over buffer (Cy3 cluster intensity, sum of 5 cycles each) (fold (ratio)); higher = stronger signal-on switching upon ATP binding; sequences stand for … in TCGTCGGCAGCGTCAGATGTGTATAAGAGACAGTTTTTTTTTTTTTTTTTTTTTTTTT…TC
Conditions: aptamer strand: ATP DNA aptamer (quencher-CACCTGGGGGAGTATTGCGGAGGAAGG + anchor), 100 nM annealed; ATP concentration: 500 uM
How it was run: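 Values give the fluorescence ratio for each switch-domain sequence, averaged from per-cluster ratios of summed target-cycle to summed buffer-cycle Cy3 intensity. The Cy3-labelled switching-strand clusters sat on a modified Illumina MiSeq flow-cell, were annealed to 100 nM quencher-labelled ATP aptamer, and were imaged in selection buffer, then after 15 min with 500 uM ATP at 22 °C. Five cycles ran with NaOH stripping and re-annealing between them, and clusters outside 100-1000 RFU were excluded.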
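Further: ATP exposure 15 min at 22 °C before imaging.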

| Sequence | switch fluorescence ratio |
| --- | --- |
| GTGTGACCGT | 1.02 ± 0.024 |
| GTGTGCTAGT | 0.975 ± 0.02 |
| GTGTGGTGTT | 0.986 ± 0.016 |
| GTGTGTCAGT | 0.964 ± 0.013 |
| GTGTGTGGGA | 1 ± 0.026 |
| GTGTGTGGGC | 1.04 ± 0.061 |
| GTGTGTGGTC | 1 ± 0.021 |
| GTGTGTTGTC | 1.01 ± 0.02 |
| GTGTTAAAGG | 0.992 ± 0.013 |
| GTGTTAATGA | 0.967 ± 0.019 |
| GTGTTAATGG | 0.998 ± 0.022 |
| GTGTTAGATC | 0.98 ± 0.017 |
| GTGTTAGGCG | 0.981 ± 0.018 |
| GTGTTATAGG | 1 ± 0.026 |
| GTGTTATATT | 1.004 ± 0.0089 |
| GTGTTCAGGG | 1.02 ± 0.021 |
| GTGTTCATGG | 1 ± 0.012 |
| GTGTTCGGCG | 1.07 ± 0.066 |
| GTGTTCTTGC | 0.9845 ± 0.0043 |
| GTGTTGGCTT | 0.995 ± 0.033 |
| GTGTTGTCGG | 1.01 ± 0.026 |
| GTGTTGTTCG | 0.995 ± 0.015 |

| Sequence | switch fluorescence ratio |
| --- | --- |
| GTGTTTAGTG | 0.9787 ± 0.0029 |
| GTGTTTCCGG | 1.01 ± 0.045 |
| GTGTTTGCTA | 1.02 ± 0.032 |
| GTGTTTTATT | 1.01 ± 0.036 |
| GTGTTTTCCT | 1.04 ± 0.017 |
| GTGTTTTCGG | 0.985 ± 0.016 |
| GTGTTTTGGC | 1.02 ± 0.029 |
| GTGTTTTTTG | 0.968 ± 0.019 |
| GTGTTTTTTT | 0.991 ± 0.023 |
| GTTAAAAACA | 1.03 ± 0.052 |
| GTTAAAGGGT | 1.01 ± 0.0075 |
| GTTAACCCAT | 1.0083 ± 4.1e-05 |
| GTTAACGATA | 1.03 ± 0.038 |
| GTTAACGTTT | 0.982 ± 0.036 |
| GTTAACTCCA | 1.02 ± 0.022 |
| GTTAACTTTG | 1.0027 ± 0.00076 |
| GTTAAGTAGC | 0.971 ± 0.025 |
| GTTAAGTTTT | 0.985 ± 0.021 |
| GTTAATATAA | 0.9971 ± 0.003 |
| GTTAATGTAA | 0.9934 ± 0.0059 |
| GTTAATTGAT | 1 ± 0.027 |
| GTTAATTTAG | 0.987 ± 0.01 |

| Sequence | switch fluorescence ratio |
| --- | --- |
| GTTACAGTGG | 1 ± 0.061 |
| GTTACGAAAA | 1 ± 0.056 |
| GTTACGGGAC | 1.24 ± 0.015 |
| GTTACGGGGG | 1.02 ± 0.031 |
| GTTACTGGTG | 1.05 ± 0.027 |
| GTTACTGTGC | 1.08 ± 0.025 |
| GTTAGAAAAA | 1.03 ± 0.023 |
| GTTAGAAAAT | 1.01 ± 0.03 |
| GTTAGACTAT | 0.99057 ± 0.00092 |
| GTTAGAGAGC | 1.06 ± 0.0068 |
| GTTAGAGGGT | 1.01 ± 0.021 |
| GTTAGAGTCA | 1.01 ± 0.013 |
| GTTAGATGTT | 1 ± 0.011 |
| GTTAGCATTG | 1 ± 0.029 |
| GTTAGCCGCT | 1.03 ± 0.014 |
| GTTAGGATGG | 1.01 ± 0.044 |
| GTTAGGGGAA | 1.02 ± 0.031 |
| GTTAGGGGGG | 0.979 ± 0.036 |
| GTTAGGGGTT | 0.996 ± 0.024 |
| GTTAGGTTGG | 0.9811 ± 0.007 |
| GTTAGTAGTG | 0.952 ± 0.022 |
| GTTAGTATAT | 1 ± 0.018 |

| Sequence | switch fluorescence ratio |
| --- | --- |
| GTTAGTCAAA | 0.991 ± 0.01 |
| GTTATAGCGT | 0.963 ± 0.026 |
| GTTATATGGA | 0.996 ± 0.018 |
| GTTATCAGTT | 0.99 ± 0.014 |
| GTTATCATTT | 0.989 ± 0.011 |
| GTTATCTAGC | 0.994 ± 0.017 |
| GTTATGGGGT | 1.01 ± 0.04 |
| GTTATTACGA | 1.005 ± 0.0041 |
| GTTATTATAG | 0.992 ± 0.005 |
| GTTATTATGC | 0.952 ± 0.035 |
| GTTATTGGTA | 1.01 ± 0.018 |
| GTTATTTACG | 1.02 ± 0.033 |
| GTTATTTATT | 0.995 ± 0.047 |
| GTTATTTGGG | 0.979 ± 0.035 |
| GTTATTTTAC | 1.01 ± 0.031 |
| GTTATTTTGT | 0.99 ± 0.019 |
| GTTCAAGATA | 1 ± 0.036 |
| GTTCAGATTG | 1.03 ± 0.0048 |
| GTTCAGTTGC | 0.996 ± 0.033 |

Reference: the supplement of paper PMC10126150
